The results in this text go back to patent publication US20180362645A1 (Amgen, published 2018).

Experiment [1] has as its target T1, human pituitary adenylate cyclase-activating polypeptide type I receptor (human, UniProt P41586 21-468).
T1 construct: whole, on cells; On SH-SY5Y or recombinant CHO cells (cAMP assay), as membranes of hPAC-1 AequoScreen CHO cells (radioligand assay) and on CHOK1/huPac1 whole cells (KinExA); also called human PAC1; hPAC1
T1 sequence (looked up): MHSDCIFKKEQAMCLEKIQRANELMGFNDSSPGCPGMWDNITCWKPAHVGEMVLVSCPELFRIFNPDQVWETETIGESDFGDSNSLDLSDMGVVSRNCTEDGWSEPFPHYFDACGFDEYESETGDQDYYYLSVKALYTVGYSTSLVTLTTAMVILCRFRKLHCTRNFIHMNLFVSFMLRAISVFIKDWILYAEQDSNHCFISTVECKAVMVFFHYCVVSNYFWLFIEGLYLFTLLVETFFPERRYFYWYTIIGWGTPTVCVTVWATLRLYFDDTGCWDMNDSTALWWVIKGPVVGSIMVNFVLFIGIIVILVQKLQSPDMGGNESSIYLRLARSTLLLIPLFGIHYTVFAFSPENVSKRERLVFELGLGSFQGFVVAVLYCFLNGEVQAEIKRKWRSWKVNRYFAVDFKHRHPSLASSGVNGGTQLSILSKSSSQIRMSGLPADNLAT
As to the kind of experiment: KinExA, CHOK1/huPac1 whole cells.
Method: Binding of anti-Pac1 antibody with CHOK1/huPac1 cells were tested on KinExA. […] Samples containing anti-Pac1 antibody and whole cells were incubated with rotation at room temperature for 4 hours before 5-minute 220-g centrifugation at 4° C. to separate the whole cells and anti-Pac1 antibody-cell complexes from unbound anti-Pac1 antibody. The supernatants containing free anti-Pac1 antibody were filtered through 0.22 μm filter before loading to the goat-anti-huFc-coated beads on KinExA. […] The binding signal is proportional to the concentration of free anti-Pac1 antibody in solution at each cell density. Equilibrium dissociation constant (KD) was estimated by n-curve analysis in KinExA™ Pro software (Sapidyne Instruments, Inc., Boise, Id.).

The target of experiment [2] is T1, human pituitary adenylate …. As to the kind of experiment: radioligand competition, hPAC1 CHO membranes; competitor 125I-26B.
Method: (§1) The plates were incubated at room temperature for 2 hours with shaking at 60 rpm, and then the contents of each well were filtered over 0.5% polyethyleneimine (PEI)-treated (for at least two hours) GF/C 96-well filter plates. The GF/C filter plates were washed five times with ice-cold 50 mM Tris, pH 7.5 and dried in an oven at 55° C. for 1 hour. The bottoms of the GF/C plates were then sealed. 40 μl Microscint™ 20 was added to each well, the tops of the GF/C plates were sealed with TopSeal™-A (a press-on adhesive sealing film), and the GF/C plates were counted with TopCount NXT (Packard). The data were analyzed using Prizm (GraphPad Software Inc.)
For a further experiment, the target named is T2, human VPAC1 (human, UniProt P32241 31-457).
T2 sequence (looked up): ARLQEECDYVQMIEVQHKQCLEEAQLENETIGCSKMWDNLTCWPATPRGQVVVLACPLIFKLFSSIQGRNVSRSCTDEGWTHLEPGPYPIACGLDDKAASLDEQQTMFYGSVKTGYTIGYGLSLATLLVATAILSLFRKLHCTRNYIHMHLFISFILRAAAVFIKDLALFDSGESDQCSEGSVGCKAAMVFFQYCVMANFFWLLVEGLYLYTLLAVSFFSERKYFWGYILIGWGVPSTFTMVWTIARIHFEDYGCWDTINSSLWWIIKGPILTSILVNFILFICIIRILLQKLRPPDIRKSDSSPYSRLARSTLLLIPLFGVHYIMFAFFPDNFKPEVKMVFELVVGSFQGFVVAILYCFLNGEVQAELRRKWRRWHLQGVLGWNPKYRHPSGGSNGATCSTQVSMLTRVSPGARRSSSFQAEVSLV
As to the kind of experiment: cell-based or functional assay.

Experiment [3] has as its target T1, human pituitary adenylate …. As to the kind of experiment: cell-based or functional assay.
In another experiment the target is T3, human VPAC2 (human, UniProt P41587 24-438).
T3 sequence (looked up): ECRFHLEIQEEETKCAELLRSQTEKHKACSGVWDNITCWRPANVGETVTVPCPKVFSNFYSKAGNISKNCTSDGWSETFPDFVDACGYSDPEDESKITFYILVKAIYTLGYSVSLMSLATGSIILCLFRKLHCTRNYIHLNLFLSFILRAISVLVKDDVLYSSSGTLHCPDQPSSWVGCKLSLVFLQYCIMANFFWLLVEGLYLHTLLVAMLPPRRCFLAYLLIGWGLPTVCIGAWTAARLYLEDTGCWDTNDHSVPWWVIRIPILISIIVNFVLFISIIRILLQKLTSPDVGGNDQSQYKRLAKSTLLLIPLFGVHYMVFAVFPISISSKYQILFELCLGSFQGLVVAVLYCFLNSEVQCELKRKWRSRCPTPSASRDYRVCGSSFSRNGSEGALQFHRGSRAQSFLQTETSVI
As to the kind of experiment: cell-based or functional assay.

The target in the next experiment is T4, rat PAC1 (rat, UniProt P32215 20-523).
T4 sequence (looked up): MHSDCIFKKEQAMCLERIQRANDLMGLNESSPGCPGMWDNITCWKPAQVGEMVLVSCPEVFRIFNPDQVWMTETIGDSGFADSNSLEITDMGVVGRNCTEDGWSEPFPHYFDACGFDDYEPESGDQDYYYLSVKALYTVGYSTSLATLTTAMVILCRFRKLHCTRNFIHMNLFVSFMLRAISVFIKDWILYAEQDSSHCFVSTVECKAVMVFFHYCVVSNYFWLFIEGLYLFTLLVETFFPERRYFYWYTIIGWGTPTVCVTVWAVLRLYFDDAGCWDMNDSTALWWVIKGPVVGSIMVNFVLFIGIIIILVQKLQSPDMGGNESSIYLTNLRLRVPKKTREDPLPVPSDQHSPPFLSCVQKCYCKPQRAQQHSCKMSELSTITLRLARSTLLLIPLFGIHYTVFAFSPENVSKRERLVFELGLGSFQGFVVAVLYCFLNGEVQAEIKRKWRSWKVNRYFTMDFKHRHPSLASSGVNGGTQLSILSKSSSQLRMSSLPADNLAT
As to the kind of experiment: cell-based or functional assay.

The target in a further experiment is cyno PAC1 (cynomolgus). As to the kind of experiment: cell-based or functional assay.
Experiment [4] deals with T1, human pituitary adenylate …. As to the kind of experiment: radioligand competition, hPAC1 CHO membranes; competitor 125I-39B.
Method: as §1
The target is the same in experiment [5]. As to the kind of experiment: radioligand competition, hPAC1 CHO membranes; competitor 125I-29B.
Method: as §1
Experiment [6] has the same target. As to the kind of experiment: radioligand competition, hPAC1 CHO membranes; competitor 125I-01B.
Method: as §1
Experiment [7] shares this target. As to the kind of experiment: radioligand competition, hPAC1 CHO membranes; competitor 125I-14B.
Method: as §1
For experiment [8] the target is unchanged. As to the kind of experiment: radioligand competition, hPAC1 CHO membranes; competitor 125I-14A.
Method: as §1
The target is the same in experiment [9]. As to the kind of experiment: radioligand competition, hPAC1 CHO membranes; competitor 125I-28A.
Method: as §1
Experiment [10] shares this target. As to the kind of experiment: radioligand competition, hPAC1 CHO membranes; competitor 125I-29A.
Method: as §1
Experiment [11] shares this target. As to the kind of experiment: radioligand competition, hPAC1 CHO membranes; competitor 125I-39A.
Method: as §1
For experiment [12] the target is unchanged. As to the kind of experiment: radioligand competition, hPAC1 CHO membranes; competitor 125I-01B; 125I-01B as tracer.
Method: as §1
For experiment [13] the target is unchanged. As to the kind of experiment: radioligand competition, hPAC1 CHO membranes; competitor 125I-26A.
Method: as §1

B1: 29B (antibody, human IgG1, kappa, N297G)
heavy: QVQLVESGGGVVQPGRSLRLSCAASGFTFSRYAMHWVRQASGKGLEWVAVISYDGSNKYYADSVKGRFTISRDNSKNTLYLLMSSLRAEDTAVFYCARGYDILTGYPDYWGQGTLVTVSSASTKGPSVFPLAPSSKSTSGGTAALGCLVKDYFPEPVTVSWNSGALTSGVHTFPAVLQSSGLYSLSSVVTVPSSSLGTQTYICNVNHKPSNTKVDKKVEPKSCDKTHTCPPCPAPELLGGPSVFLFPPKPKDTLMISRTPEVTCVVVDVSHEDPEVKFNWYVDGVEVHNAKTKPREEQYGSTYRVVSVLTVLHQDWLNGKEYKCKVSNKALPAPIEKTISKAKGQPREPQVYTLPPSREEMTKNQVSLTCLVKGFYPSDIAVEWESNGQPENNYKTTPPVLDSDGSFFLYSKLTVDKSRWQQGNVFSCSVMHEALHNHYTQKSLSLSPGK
light: DIQLTQSPSFLSASVGDRVTITCRASQSIGRSLHWYQQKPGKAPKLLFKYASQSLSGVPSRFSGSGSGTEFTLTISSLQPEDFATYYCHQSSRLPFTFGPGTKVDIKRTVAAPSVFIFPPSDEQLKSGTASVVCLLNNFYPREAKVQWKVDNALQSGNSQESVTEQDSKDSTYSLSSTLTLSKADYEKHKVYACEVTHQGLSSPVTKSFNRGEC
notes: "B" suffix: aglycosylated IgG1 variant (N297G); also called LC-11 and HC-40
In experiment [1], B1 had a dissociation constant Kd of 0.015 nM. In addition, the Ki in experiment [2] came to 0.07 nM; in experiment [4], 0.05 nM; in experiment [5], 0.08 nM; in experiment [6], 0.14 nM; in experiment [7], 0.08 nM. For the same molecule, the “hVPAC1 IC50 (cAMP assay)” value in the experiment with human VPAC1 is above 10000 nM. The “hPAC1 IC50 (cAMP assay)” value in [3] was 0.9 nM. Further, the “hVPAC2 IC50 (cAMP assay)” value in the experiment with human VPAC2 is above 10000 nM. Further, in the experiment with rat PAC1, the “rat PAC1 IC50 (cAMP assay)” value came to 50.7 nM. The “cyno PAC1 IC50 (cAMP assay)” value in the experiment with cyno PAC1 came to 0.5 nM.
For the molecule FTDSYSRYRKQMAVKKYLAAVLGKRYKQRVKNK (peptide, UniProt P18509 137-169, looked up, domain: PACAP 6-38) [PACAP 6-38], the inhibitory constant (Ki) amounted to 4.08 nM in experiment [8]; 6.26 nM in experiment [2]; 2.06 nM in experiment [9]; 4.05 nM in [10]; 2.78 nM in [11]; 4.91 nM in experiment [4]. The Ki in [5] was 2.39 nM; in experiment [12], 4.98 nM; in experiment [7], 7.74 nM; in experiment [13], 2.51 nM.
